In the DeepSol protein solubility set:

Assay: soluble on expression in E. coli; label from the status in PepcDB or PDB records

Soluble on expression in E. coli, not soluble:
MGSDKIHHHHHHMPRQLPPLYALRAFEAAARLSSFTRAGEELSITQSAISRHIRTLEEHFACRLFVRSGRSLQLTEAGRVLLPGVREGFAAFERACETLCGEDDILRMKAPSTLTMRWLLACLSRFRHLQPGNEVQLTSAWMDVDHVDFNQEPFDCAVLLSDGVFPPEWEVRKLFPELLIPVGAPDLLDEEPWDVCRLASVELLHPTVDKRDWREWLERMGLGDQVSLKGGQVFDTLELGMIAAARGYGISMGDLLMVAEDVAQKRLSLPWPTAVPSGMDYYLVWPRTRRGGERLRRLSAFLEGEVAAMDLPDVEILPRL
MGSDKIHHHHHHMPRTILKDEHWTRLKPILLELNIYDKGNLRNTVEGVLYRMRVGCPWRDLPEHFGKPNTVYKAYQRWFRSNKLIALFALLIKDSDCEWVFIDGTHIKAHQHSSIGHENMQGISKSVAGRATKIHLAVDAHGNPITFILSDGTTHDVKVAPDLIDKDLSDTDILCADKGYDSDALRTHIKQAGCFNNIPRRRNTKSTNNHMDWHLYKTRHLVENAFAKLKHYRAVATRFDKLKQSYENTVALACAYLWLKL
MGSDKIHHHHHHMPTLNQPQARFLALPHKFRAFVAGFGSGKTWVGGAGLCRHAWEFPRVNSGYFAPTYGQIRDIFYPTIEEVAHDWGLAAKINESNKEVHLFAGRKYRGTVICRSMEKPGDIVGFKIGKGLIDELDVMKADKAALAWRKIIARLRHTAPGLLNGVDVTTTPEGFKFVYQQFVKQVRERPELAALYGLVQASTYENGKNLPEDYIPSLRASYPPQLIAAYLRGQFTNLTSGSVYANFDRRLHHTDAAEEPHEELHIGMDFNVLNMTATVNVIRAGLPLTVGELTKVRDTPEMARMLKERFKDKGHGVTIYPDASGGNTSSKNASESDLSILRKAGFTVRVNSRNPSVKDRINAVNGMLLNDEGARRWLVNTDRCPTLTEALEQQVYDKNGEPDKSTGHDHPNDAQGYFLVHRYPITPTGMSRIKLTGT
MGSDKIHHHHHHMPTTMTTNIKNNDFKDVVFNRQSVRQFDPTVKIDREELQTIIDETISAPSACNLQSWHFVVADSADGKAKAKSVLMPFNYPQIDSCSAMIFVLGDTQSHLVYRDVWNKACEEGRITPEKRDQIFKTFLPMYENASPEFLQADAMIDSSMAAMQLLLIARAHGYDANPIAGYAADKVATTFGLDAKRYVPVMAIALGKAASEPITTTRYAGTQVTEFI
MGSDKIHHHHHHMPTVKLTKNITIMTGSPNTLIYDNRVVIDLGGKNSSVDINAEVQLATHGHADHIAGLLKKDAKIRYLPKEDYWSLTLMGRRAMIYGCSSKDSDIFTFDYVKENIESIDIEVRTSEIEVIKLPGHTPGHSGYIVDNVLYAGDAFFGEKVLEGFSVPFYTDFWTALESLNKVKELAKSVNNIVISHGPVYTNKNKMVSILESNIIYAQNLIGKILDMLSNNELTVEEIVVKLKQDLTPSNVLLNSVVVRSILFGLENIEYNVSQKGLVFRRRVH
MGSDKIHHHHHHMPTYDAVIVGSGINSLVCAAVLARSGKRVCVLERNSTLGGCIRTEALHAPGYLHDTLSTAHPLFVTSPGYAELKDDLHQAGLSYANNDTPTGVLLPGNRSLILATSRERNVSAFNALASGDGDAYLAAMQEVEQNAGLVFSLLGNELWSADVAKTVAGRLWKQGVHDTVAFFSPALMSCRSWLETRIRSDLVRALLAPWVLHTGLGPESAMSALMGKVVAFSLEAVGLPIVQGGNARTVEAFRQIVESHGGAFHVNADVEDVLVENGSARGVRTRDDRVFMGKEIICNVTPGQLYGKLLAPAHVPPALRQQAAEYRYGKGNMQIHLSLSAPPDWPHAHLRNVIYLHLTSGLDGVSRAVSEAERGLLPAEGTICVAQPCAVDPSRSPAGGWVLWIQVPECPRTIKGDALGEIDAPADGRWTPEIRERYADRIIDRIARQVPNLKASIVGRTVLSPADLEAMNINLVGGDPYSGECSIDQFMVWRPLRGARNHATPVKHLHHIGASTHPGPGLGGTSGYHVANALARKRAKSNRT
MGSDKIHHHHHHMPVSQPVSSQPPTANCYDLAVIGGGINGVGIAADAAGRGLKVFLCEKDDLAQHTSSASSKLIHGGLRYLEHYEFRLVREALAEREVLLAKAPHIVKPMRFVLPHRPHLRPAWMIRAGLFLYDHLGKRKRLGASRSLRFGPGYPLKPAITRGFEYADCAVDDARLVVLNAMAARELGAHIRTRTRCLRAERVEGLWQVELQHADGSLQTIHARALVNAAGPWVASFIKDDLKLDAPYGIRLIQGSHIIVPRLYEGEHAYILQNEDQRIVFCIPYLDRFTLIGTTDREYSGDPAAVAITEQETHYLLKVVNEHFNHQLSQADILHTYSGVRPLCNDESDNPSAVTRDYTLALSAEVGQAPLLSVFGGKLTTYRKLAESAMAELKPFFTQMRAPWTASAPLPGAEGMTTVQALIDAVLARCGWLPVDLAKRWVLTYGSRVWRLLDGVHGPEDLGQAIGAGLFTREVDYLLEEEWAEQTADIIWRRTKLGLSLTAQEQMALEAYLQQARKVRANSRAA
MGSDKIHHHHHHMPYNATVLRIMIASPSDVAKERNIIRNIIYEWNTINSIDRKIVLDPVGWETHAHPDMSGRAQSIINKQILKDCDLLVAVFWTRLGTPTGKFISGTVEEIEEHLKSGKQAMIYFSRAPVYLESVDQDQYKALCDFRSLCQQKGLIETYESLEEFQHKFSRQISQKIIQNYSSLESTNNTLEVSFAPELPRLSDLGKDLLIEVASDSNGELICLPVMGGLMIETNNKQLADMGNARSEASWKSAISELIKYELMESLGGKGEVYRLTEKGYQVADHLGAP
MGSDKIHHHHHHMQAAWLLGALVVPQLLSFGHGARGPGREWEGGWGGALEEERERESQMLKNLQEALGLPTGVGNEDNLAENPEDKEVWETTETQGEEEEEEITTAPSSSPNPFPSPSPTPEDTVTYILGRLASLDAGLHQLHVRLHVLDTRVVELTQGLRQLRDAASDTRDSVQALKEVQDRAEQEHGRLEGCLKGLRLGHKCFLLSRDFETQAAAQARCKARGGSLAQPADRQQMDALSRYLRAALAPYNWPVWLGVHDRRSEGLYLFENGQRVSFFAWHRAFSLESGAQPSAATHPLSPDQPNGGVLENCVAQASDDGSWWDHDCERRLYFVCEFPF
MGSDKIHHHHHHMQDFLEFQSISKGYPGVQALSEVSFSVRKGAVHGLMGENGAGKSTLIRVLSGDQAADTGEIRINGEPQHYRSVRDAFNAGVIVIHQELQLVPELTVAENLWLGRFPGKAGVIDRRQLIRVVSDRLAEIGIDVDPEAKVASLSIGERQMVEIAKAVMTDARVIALDEPTSSLSSRESEILFALIDRLRSNGTVILYVSHRLDEIFRLCNSLTVLRDGRLAAHHPDISKVGREQIIAEMVGREISNIWGWRARTLGAARLTVERVSGANLPQPISFTVRAGEILGFFGLIGAGRSEMARLVYGADRRRQGKVLVDGLAVPADSPRLSIRAGVVLCPEDRKFDGIVQGRSIEENMAISSRRHFSPFGVVDKGKEAELAERFIAKLRVRTPSRHQDIVNLSGGNQQKVILGRWLSEEGVKVLLIDEPTRGIDVGAKSEIYEILYELAAQGMAIVVISSELPEVMGIADRILVMCEGRIAAEIDRSDFDEHRILAAALPDASATTATLPEQVS
MGSDKIHHHHHHMQDIKDLTAVLRSNTPIVVIETYEEYRVIELLKRVAMTLYQPLFTWSVTSGLSRVDKDMGSQKFNTEPAELLGQIKSTQQQGIYVLCDFHPFVQDAPRNVRLLKEIALEYDALKHTLVLVSHAFEIPPEIRRYCAHFRLSLPSRNQLENLIVEEIDKVRRQGLPLVADESAIARLADNLRGVTFDDARRLIHKAIVDDGAITHDDVERVNQAKFRLMDMDGVLRYEYDTSSFSDIAGLHNLKEWLKARAPELSPQSSAPPPKGILLLGVQGSGKSLAAKAVAGAWQRPLLRLDMAALYNKYIGETEKNLRQALELADLMSPCVLWVDEIEKGISGSSSDEGTSQRILGTLLTWMAERKSDVFLVATANDIQALPPELMRKGRMDEIFFVDLPDEEIRKAIFLIHCKKRGVDVTSMDLGLLSRASQGFSGAEIEQAVISAIYSAASRRQPVEQAIILEELSRTRPLSVVMREKIDSLRAWAKGRTMNAHLD
MGSDKIHHHHHHMQFLDDSLHPENQDKVVITVAPYGPEWMPQDFPEDIPVTMEEQVQKAVDCYNAGATVLHLHVRELDGKGSKRLSKFNELIAGVRAAVPDMIIQVGGSISFAPEDDGQAAKWLSDDTRHMLADLDPKPDQVTVAINTTQMNIMELLYPEYLEGTSLSHPAYVEAYREMTVPAGPGWVEEHLRRLSNAGIQPHFQLTGIHAMETLERMVRAGKYKGPLNLTWIGIGGGFDGPNPFNFVNFVHRAPDGCTLTAESLLKNVLPFNMMAMAMGLHPRCGIEDTIIDQHGNRMTSVQQIEQCVRVARELGREIASGKEAREIYRIGTWYDSAEETLEAHGMAPNRKAGQKNLPLRKAA
MGSDKIHHHHHHMQGAQSTVDTQSESLNADRSASVDGHPIIVGAFINMYQQLNKDNLFLLRQVYRDDICFRDPMHHVEGIEALTDYFANMYQNVTHIEFDIKEVVISADKQQAALYWTMSYSHPKLSKGQLINVEGMSQLKFSDKIFSHRDYFDLGQMLYEQVPFLGGLIGLLKNRVTK
MGSDKIHHHHHHMQHDDQPLPQTAPHGRVISHLGETDTDDATLLASIKTRLRQHNDRSAAEMEHLLQLVDALWAMELGRFLLRNRGLNANWTHQLVTYQAGTLVQQTTPALEYELFEKTPAVLATRERFGIFRTQLQALLRPGMTLASLPCGWMADVLSLDYGQCPDVRLIGIDLDPQALDGALRLAQQYGLEGQLTLQREDAWAPGEPNSVDVLSSNGLNLYEPDDARVIALYRAFFDRLRPGGTLVASFLTPPPSLCAESPWKLDLIDGAALVLQSQVFIDVVQARWASFRTHAQTRTQLESAGFTDVRFIDDRASIFPTVIARKPMSD
MGSDKIHHHHHHMQIELANFEKIYTHFVGNKSDEEGITISKTPLQLNDESLKELLLNYFTHPFKNKEYNHFHHETDLNLNELYTYCSTIFADPDALYLQSINIAKHLYEQSKHPMIKGGELYVVHFNDCVIDGESTDAIGLFKSETKETFLKIFPQGDGYEAVSDKGIDIRKLDKGCFIINSEKENGYKVCVVDQTNKSSDAQYWKDDFLKIVSRNDSFHYTQNYMNMCKSFVTDQMPETFEVSKTDQIDLLNRSVNYFKKNESFDMQAFTNDVIQDEGLIDSFKEYKNKFQEDHQMPMVDEFEISTPAVKKYAKVFKSVLKLDRNFHIYIHGDKDLIERGRDDASGMNFYKIYYKEES
MGSDKIHHHHHHMQILLANPRGFCAGVDRAISIVERALELFGTPIYVRHEVVHNRYVVNGLRERGAIFIEQIEDVPDGAILIFSAHGVSQAVRNEAKNRDLTVFDATCPLVTKVHMEVARASKKGVEAILIGHAGHPEVEGTMGQYSNADGGMYLVESPDDVWQLQVKDEKNLCFMTQTTLSVDDTYAVIDALRERFPRIIGPRKDDICYATTNRQEAVRHLSDKADVVFVVGSKNSSNSNRLAELAQRAGKAAYLIDSADDIQESWLTGASYVGVTAGASAPDILVQQVIQRLKELGGKVAVEMQGREENIVFEVPKELRVEVKQID
MGSDKIHHHHHHMQLRALMYFDELVRTNSMRAAAENLNVAPTAVSRQIENLEYYFGSPLVERSSRGVKLTAAGELLAARAGKTLRELDHVHRLIDDLKGLQRGRVTVYANGATVANLLAPVLAQFSLKYPKLRFEVHITSARQAMEALGAAEADLVVSLFAPKLSGVKVRSRTRISYDVIFPAGHALAAQPEVSLKELAGMPLALPDKSFAARQAFDTLFADAGIELDPVFITSSLEMLKELVLGNAAATLLPALSVAREIRSGQMVAVPLAGKKGIHTQIDLCVAPDRQLSFAASKLADFIERFMREATAG
